The source of these data is patent publication US20220048996A1 (F STAR BETA, published 2022).

Assay [1] deals with human CD137 expressed on DO11.10 cells (DO11.10-hCD137) (human, UniProt Q07011 24-255). The assay can be described thus: cell-based or functional assay.
The target of assay [2] is T1, hFcγR2b (R&D Systems 1460-CD-050/CF) (human, UniProt P31994 46-217, limits assumed).
T1 construct: Bought; also called FcγRIIb
T1 sequence (looked up): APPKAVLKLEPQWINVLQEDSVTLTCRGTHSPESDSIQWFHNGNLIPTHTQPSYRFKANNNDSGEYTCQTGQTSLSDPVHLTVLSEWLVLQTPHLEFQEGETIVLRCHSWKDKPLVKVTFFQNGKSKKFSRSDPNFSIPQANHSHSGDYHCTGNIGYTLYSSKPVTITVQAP
The assay can be described thus: SPR, antibody 100 nM on OX40-his chip co-injected with FcγR 500 nM. How it is done:
Binding was tested on a Biacore 3000 instrument (GE Healthcare). Human OX40 (BPS Bioscience cat no 71310) and human CD137 (produced in house) biotinylated his-tagged antigens were coated onto an SA chip (GE Healthcare cat no BR100398) at 2 μM concentration. Human OX40 and human CD137 were coated on separate flow cells, while another flow cell was left blank for background subtraction. Regeneration conditions were determined to be 12 μl aqueous 10 mM glycine-HCl at pH2.0 at 20 μl/min flow rate. Antibodies (see Table 8) and human FcγRs (see Table 8) were diluted to 100 nM (antibodies) or 500 nM (human FcγRs) in HBS-P (0.01 M HEPES pH 7.4, 0.15 M NaCl, 0.005% v/v Surfactant P20, GE Healthcare, BR-1003-68) and co-injected at 20 μl/min flow rate and the dissociation was followed for 5 min.
Data analysis was performed with BiaEvaluation software version 3.2 RC1 by referencing against the blank flow cell and aligning the curves after the association of the antibody. Values for binding response at the end of the association phase were generated by subtracting the […] to normalize the effect of the antibody binding to the OX40 and CD137 receptors.

Assay [3] deals with T2, hCD137-mFc-Avi (human).
T2 construct: Dimer; a biotinylated version was used where the text says so; also called human CD137-mFc-Avi; hCD137-mFc-Avi-Bio
The assay is described as follows: SPR, antibody captured via anti-human Fc, dimeric antigen flowed, 1:1 fit. As for the experimental part:
(§1) For CD137 affinity determination, a Biacore CM5 chip (GE Healthcare) was coated with anti-human Fc using a Human Antibody Capture Kit (GE Healthcare) according to manufacturer's conditions, to a surface density of approximately 4000 RU. […] Human or cynomolgus CD137 (hCD137-mFc-Avi or cCD137-mFc-Avi) was flowed over at a range of concentrations in a three-fold dilution series starting at 200 nM, at a flow rate of 70 μl/min. The association time was 2 min and the dissociation time was 8 min. Running buffer was HBS-EP (GE Healthcare BR100188). Flow cells were regenerated by injecting 3M magnesium chloride at a flow rate of 30 μl/min for 30 seconds.
(§2) The binding kinetics were fit with a 1:1 Langmuir model to generate binding association (kₐ) and dissociation (kd) rates. Equilibrium binding constants (KD) were calculated by dividing the dissociation rate by the association rate for each sample. Data analysis was performed with BiaEvaluation software version 3.2.
A general note: Surface plasmon resonance follows binding to a sensor surface in real time, without labels.

Assay [4] has as its target T3, cCD137-mFc-Avi (cynomolgus monkey).
T3 construct: 139 used; also called cyno CD137-mFc-Avi; recombinant cyno CD137
T3 chain: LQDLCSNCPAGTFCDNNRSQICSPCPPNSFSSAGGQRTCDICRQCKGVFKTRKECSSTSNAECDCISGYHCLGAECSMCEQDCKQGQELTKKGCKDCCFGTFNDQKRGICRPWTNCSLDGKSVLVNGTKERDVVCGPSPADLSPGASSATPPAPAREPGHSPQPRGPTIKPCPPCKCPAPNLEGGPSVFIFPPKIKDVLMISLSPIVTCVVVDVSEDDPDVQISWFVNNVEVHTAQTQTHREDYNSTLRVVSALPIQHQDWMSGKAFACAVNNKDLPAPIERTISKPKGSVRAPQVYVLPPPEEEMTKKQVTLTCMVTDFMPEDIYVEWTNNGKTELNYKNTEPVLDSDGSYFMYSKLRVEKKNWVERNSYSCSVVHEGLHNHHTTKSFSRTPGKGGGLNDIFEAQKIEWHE
The assay is described as above. As for the experimental part: as §1, §2

Assay [5] addresses T4, hOX40-mFc (human).
T4 construct: Dimeric; also called human OX40-mFc
T4 chain: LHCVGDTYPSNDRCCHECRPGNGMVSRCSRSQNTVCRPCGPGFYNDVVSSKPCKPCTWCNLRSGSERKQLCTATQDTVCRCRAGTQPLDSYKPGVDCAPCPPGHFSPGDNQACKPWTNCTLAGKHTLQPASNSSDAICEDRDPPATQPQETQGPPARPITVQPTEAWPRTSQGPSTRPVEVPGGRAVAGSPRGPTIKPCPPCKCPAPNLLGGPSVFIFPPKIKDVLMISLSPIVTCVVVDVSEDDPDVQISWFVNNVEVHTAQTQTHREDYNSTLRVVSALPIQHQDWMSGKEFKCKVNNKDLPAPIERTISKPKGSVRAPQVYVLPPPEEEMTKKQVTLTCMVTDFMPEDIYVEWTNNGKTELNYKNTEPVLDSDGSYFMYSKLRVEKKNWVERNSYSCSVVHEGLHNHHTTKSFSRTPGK
The assay is described as follows: SPR, antibody captured via anti-human Fab, dimeric antigen flowed, 1:1 fit. How it is done:
For OX40 affinity determination a Biacore CM5 chip was coated with anti-human Fab using a Human Fab Capture Kit (GE Healthcare 28958325) according to manufacturer's conditions, to a surface density of approximately 8000 RU. […] The association time was 2 min and the dissociation time was 8 min. Running buffer was HBS-EP. Flow cells were regenerated by injecting glycine-HCl at pH 2.1 at a flow rate of 30 μl/min for 30 seconds.
as §2

Chain of human CD137 expressed on DO11.10 cells (DO11.10-hCD137) (Q07011 24-255): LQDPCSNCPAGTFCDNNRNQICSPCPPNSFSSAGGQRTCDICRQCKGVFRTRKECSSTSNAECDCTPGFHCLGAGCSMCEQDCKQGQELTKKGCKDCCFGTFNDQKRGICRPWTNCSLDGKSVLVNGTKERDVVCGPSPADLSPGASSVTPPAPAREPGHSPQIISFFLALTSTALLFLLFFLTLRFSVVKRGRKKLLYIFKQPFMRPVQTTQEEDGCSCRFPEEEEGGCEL

B1: FS20-22-49AA/FS30-10-16 (bispecific antibody, human IgG1, kappa, L234A L235A)
heavy: EVQLLESGGGLVQPGGSLRLSCAASGFTFSSYDMSWVRQAPGKGLEWVSDIDPTGSKTDYADSVKGRFTISRDNSKNTLYLQMNSLRAEDTAVYYCARDLLVYGFDYWGQGTLVTVSSASTKGPSVFPLAPSSKSTSGGTAALGCLVKDYFPEPVTVSWNSGALTSGVHTFPAVLQSSGLYSLSSVVTVPSSSLGTQTYICNVNHKPSNTKVDKKVEPKSCDKTHTCPPCPAPEAAGGPSVFLFPPKPKDTLMISRTPEVTCVVVDVSHEDPEVKFNWYVDGVEVHNAKTKPREEQYNSTYRVVSVLTVLHQDWLNGKEYKCKVSNKALPAPIEKTISKAKGQPREPQVYTLPPSRDEYWDQEVSLTCLVKGFYPSDIAVEWESNGDEQFAYKTTPPVLDSDGSFFLYSKLTVDQYRWNPADYFSCSVMHEALHNHYTQKSLSLSPG
light: EIVLTQSPGTLSLSPGERATLSCRASQSVSSSYLAWYQQKPGQAPRLLIYGASSRATGIPDRFSGSGSGTDFTLTISRLEPEDFAVYYCQQSYSYPVTFGQGTKVEIKRTVAAPSVFIFPPSDEQLKSGTASVVCLLNNFYPREAKVQWKVDNALQSGNSQESVTEQDSKDSTYSLSSTLTLSKADYEKHKVYACEVTHQGLSSPVTKSFNRGEC
notes: IgG1 with LALA; also called OX40/CD137 mAb^2; copies: 2 + 2
What is called Kd is the concentration at which binding is half-saturated. On to B1, for which the “EC50 of mIL-2 release, DO11.10-hCD137 assay, crosslinked” value in assay [1] came to 4.7 nM. In addition, the “Emax of mIL-2 release, DO11.10-hCD137 assay, crosslinked” value in assay [1] stood at 16300 pg/mL. Also, the “binding response at end of association phase of FcγR” value in assay [2] is 34.3 RU. Besides, the dissociation constant Kd in assay [3] turned out to be 0.17 nM; in assay [4], 0.15 nM; in assay [5], 0.214 nM.
